Laboratory results from US20160264649A1.

Legend:
Assay in all cases: cell-based or functional assay
[1] = biological target: HIV-1 MGRM-AE-005 Env (HIV-1)
[2] = biological target: HIV-1 MGRM-A-012 Env (HIV-1)
[3] = biological target: HIV-1 MGRM-A-009 Env (HIV-1)
[4] = biological target: HIV-1 92UG037 Env (HIV-1)
[5] = biological target: HIV-1 MGRM-AG-005 Env (HIV-1)
HIV-1 VLGCA1 Env (HIV-1) = biological target: HIV-1 VLGCA1 Env (HIV-1)
[6] = biological target: HIV-1 92WR009 Env (HIV-1)
[7] = biological target: HIV-1 MGRM-A-003 Env (HIV-1)
[8] = biological target: HIV-1 MGRM-A-008 Env (HIV-1)
[9] = biological target: HIV-1 MGRM-A-006 Env (HIV-1)
[10] = biological target: HIV-1 MGRM-AG-011 Env (HIV-1)
[11] = biological target: HIV-1 MGRM-A-002 Env (HIV-1)
[12] = biological target: HIV-1 92TH021 Env (HIV-1)
[13] = biological target: HIV-1 MGRM-AG-006 Env (HIV-1)
[14] = biological target: HIV-1 MGRM-AE-007 Env (HIV-1)
[15] = biological target: HIV-1 MGRM-A-014 Env (HIV-1)
[16] = biological target: HIV-1 MGRM-AG-002 Env (HIV-1)
[17] = biological target: HIV-1 MGRM-AG-009 Env (HIV-1)
[18] = biological target: HIV-1 MGRM-AE-003 Env (HIV-1)
[19] = biological target: HIV-1 MGRM-AG-012 Env (HIV-1)
[20] = biological target: HIV-1 MGRM-A-005 Env (HIV-1)
[21] = biological target: HIV-1 MGRM-A-013 Env (HIV-1)
[22] = biological target: HIV-1 MGRM-AE-001 Env (HIV-1)
[23] = biological target: HIV-1 93WR029 Env (HIV-1)
[24] = biological target: HIV-1 92UG031 Env (HIV-1)
[25] = biological target: HIV-1 92WR021 Env (HIV-1)
[26] = biological target: HIV-1 MGRM-A-004 Env (HIV-1)
[27] = biological target: HIV-1 MGRM-AE-008 Env (HIV-1)
[28] = biological target: HIV-1 MGRM-AG-001 Env (HIV-1)
[29] = biological target: HIV-1 94UG103 Env (HIV-1)
[30] = biological target: HIV-1 92WR024 Env (HIV-1)
HIV-1 CMU02 Env (HIV-1) = biological target: HIV-1 CMU02 Env (HIV-1)
[31] = biological target: HIV-1 MGRM-A-001 Env (HIV-1)
[32] = biological target: HIV-1 MGRM-A-010 Env (HIV-1)
[33] = biological target: HIV-1 MGRM-AE-006 Env (HIV-1)
[34] = biological target: HIV-1 92RW008 Env (HIV-1)
[35] = biological target: HIV-1 MGRM-A-007 Env (HIV-1)
[36] = biological target: HIV-1 MGRM-AG-003 Env (HIV-1)
[37] = biological target: HIV-1 MGRM-A-011 Env (HIV-1)
[38] = biological target: HIV-1 93UG077 Env (HIV-1)
[39] = biological target: HIV-1 MGRM-AE-002 Env (HIV-1)
[40] = biological target: HIV-1 94KE105 Env (HIV-1)
[41] = biological target: HIV-1 92WR020 Env (HIV-1)
[42] = biological target: HIV-1 MGRM-AE-004 Env (HIV-1)
[43] = biological target: HIV-1 MGRM-AG-008 Env (HIV-1)
[44] = biological target: HIV-1 92WR026 Env (HIV-1)
[45] = biological target: HIV-1 MGRM-AG-013 Env (HIV-1)

5123_A06 (PGT-125) (antibody)
IC50 [1]: 0.01 µg/mL
IC50 [2]: 0.177 µg/mL
IC50 [3]: 0.009 µg/mL
IC50 [4]: 0.005 µg/mL
IC50 [5]: > 50 µg/mL
IC50 (HIV-1 VLGCA1 Env (HIV-1)): 0.078 µg/mL
IC50 [6]: 0.144 µg/mL
IC50 [7]: > 50 µg/mL
IC50 [8]: > 50 µg/mL
IC50 [9]: > 50 µg/mL
IC50 [10]: > 50 µg/mL
IC50 [11]: 0.013 µg/mL
IC50 [12]: 0.006 µg/mL
IC50 [13]: 0.008 µg/mL
IC50 [14]: 0.876 µg/mL
IC50 [15]: 13.9 µg/mL
IC50 [16]: > 50 µg/mL
IC50 [17]: 0.026 µg/mL
IC50 [18]: 0.092 µg/mL
IC50 [19]: > 50 µg/mL
IC50 [20]: > 50 µg/mL
IC50 [21]: 0.014 µg/mL
IC50 [22]: 2.95 µg/mL
IC50 [23]: > 50 µg/mL
IC50 [24]: > 50 µg/mL
IC50 [25]: 0.005 µg/mL
IC50 [26]: > 50 µg/mL
IC50 [27]: > 50 µg/mL
IC50 [28]: > 50 µg/mL
IC50 [29]: 0.008 µg/mL
IC50 [30]: 35.5 µg/mL
IC50 (HIV-1 CMU02 Env (HIV-1)): > 50 µg/mL
IC50 [31]: 12.4 µg/mL
IC50 [32]: 0.004 µg/mL
IC50 [33]: 0.009 µg/mL
IC50 [34]: 0.004 µg/mL
IC50 [35]: > 50 µg/mL
IC50 [36]: > 50 µg/mL
IC50 [37]: > 50 µg/mL
IC50 [38]: 0.012 µg/mL
IC50 [39]: > 50 µg/mL
IC50 [40]: 0.004 µg/mL
IC50 [41]: 0.004 µg/mL
IC50 [42]: > 50 µg/mL
IC50 [43]: > 50 µg/mL
IC50 [44]: 0.007 µg/mL
IC50 [45]: 0.004 µg/mL

4858_P08 (PGT-123) (antibody)
IC50 [1]: > 50 µg/mL
IC50 [2]: 0.192 µg/mL
IC50 [3]: 0.004 µg/mL
IC50 [4]: 0.023 µg/mL
IC50 [5]: 0.149 µg/mL
IC50 (HIV-1 VLGCA1 Env (HIV-1)): > 50 µg/mL
IC50 [6]: 15.7 µg/mL
IC50 [7]: 0.495 µg/mL
IC50 [8]: > 50 µg/mL
IC50 [9]: > 50 µg/mL
IC50 [10]: > 50 µg/mL
IC50 [11]: 0.011 µg/mL
IC50 [12]: > 50 µg/mL
IC50 [13]: 0.014 µg/mL
IC50 [14]: > 50 µg/mL
IC50 [15]: 0.003 µg/mL
IC50 [16]: > 50 µg/mL
IC50 [17]: 0.073 µg/mL
IC50 [18]: > 50 µg/mL
IC50 [19]: > 50 µg/mL
IC50 [20]: > 50 µg/mL
IC50 [21]: 0.565 µg/mL
IC50 [22]: > 50 µg/mL
IC50 [23]: > 50 µg/mL
IC50 [24]: > 50 µg/mL
IC50 [25]: 0.005 µg/mL
IC50 [26]: > 50 µg/mL
IC50 [27]: > 50 µg/mL
IC50 [28]: 2.51 µg/mL
IC50 [29]: 0.678 µg/mL
IC50 [30]: > 50 µg/mL
IC50 (HIV-1 CMU02 Env (HIV-1)): > 50 µg/mL
IC50 [31]: > 50 µg/mL
IC50 [32]: 0.705 µg/mL
IC50 [33]: > 50 µg/mL
IC50 [34]: 0.003 µg/mL
IC50 [35]: > 50 µg/mL
IC50 [36]: > 50 µg/mL
IC50 [37]: > 50 µg/mL
IC50 [38]: 0.028 µg/mL
IC50 [39]: > 50 µg/mL
IC50 [40]: 0.024 µg/mL
IC50 [41]: 0.002 µg/mL
IC50 [42]: > 50 µg/mL
IC50 [43]: 19.2 µg/mL
IC50 [44]: 0.012 µg/mL
IC50 [45]: 3.37 µg/mL

4877_D15 (PGT-122) (antibody)
IC50 [1]: > 50 µg/mL
IC50 [2]: 0.257 µg/mL
IC50 [3]: 0.012 µg/mL
IC50 [4]: 0.068 µg/mL
IC50 [5]: 33.9 µg/mL
IC50 (HIV-1 VLGCA1 Env (HIV-1)): > 50 µg/mL
IC50 [6]: 42.4 µg/mL
IC50 [7]: 3.79 µg/mL
IC50 [8]: > 50 µg/mL
IC50 [9]: > 50 µg/mL
IC50 [10]: > 50 µg/mL
IC50 [11]: 0.017 µg/mL
IC50 [12]: > 50 µg/mL
IC50 [13]: 0.028 µg/mL
IC50 [14]: > 50 µg/mL
IC50 [15]: 0.007 µg/mL
IC50 [16]: > 50 µg/mL
IC50 [17]: 0.128 µg/mL
IC50 [18]: > 50 µg/mL
IC50 [19]: > 50 µg/mL
IC50 [20]: > 50 µg/mL
IC50 [21]: 2.47 µg/mL
IC50 [22]: > 50 µg/mL
IC50 [23]: > 50 µg/mL
IC50 [24]: > 50 µg/mL
IC50 [25]: 0.021 µg/mL
IC50 [26]: > 50 µg/mL
IC50 [27]: > 50 µg/mL
IC50 [28]: 14.5 µg/mL
IC50 [29]: 2.04 µg/mL
IC50 [30]: > 50 µg/mL
IC50 (HIV-1 CMU02 Env (HIV-1)): > 50 µg/mL
IC50 [31]: > 50 µg/mL
IC50 [32]: 2.51 µg/mL
IC50 [33]: > 50 µg/mL
IC50 [34]: 0.003 µg/mL
IC50 [35]: > 50 µg/mL
IC50 [36]: 43.7 µg/mL
IC50 [37]: > 50 µg/mL
IC50 [38]: 0.084 µg/mL
IC50 [39]: > 50 µg/mL
IC50 [40]: 0.056 µg/mL
IC50 [41]: 0.009 µg/mL
IC50 [42]: > 50 µg/mL
IC50 [43]: > 50 µg/mL
IC50 [44]: 0.036 µg/mL
IC50 [45]: 0.521 µg/mL
